Reference: PMC5100602

Molecular target: Gk-S15 (ribosomal protein S15) (Geobacillus kaustophilus) (UniProt Q5L0I3)
Test: filter binding
Conditions: SELEX Binding Buffer A: 50 mM Tris/acetate pH 7.5, 20 mM Mg-acetate, 270 mM KCl, 5 mM DTT, 0.02% BSA, 25 C, 30 min; filter binding (nitrocellulose/nylon) as …

Work on Gk-mRNA yielded a Kd of 0.7 nM.
